How the values were obtained:
[1] = molecular target: T1, hGal3 peptide 6 (human); test: peptide ELISA, 20-mer library (Epitope Mapping)
T1 peptide: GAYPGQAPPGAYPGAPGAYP

[2] = molecular target: T2, Human Galectin-3 protein (Acro Biosystems, GA3-H5129) (human, UniProt P17931 2-250); test: ELISA, hGal3 coated, antibody 3 ug/mL, competitor hTIM3
T2 construct: Bought protein; also called hGal3; Gal3; not shown: linker-spaced 6-histidine tag

[3] = molecular target: T2, Human Galectin-3 protein (Acro …); test: SPR Biacore T200, antibody captured, Galectin-3 analyte

T2 sequence (P17931 2-250): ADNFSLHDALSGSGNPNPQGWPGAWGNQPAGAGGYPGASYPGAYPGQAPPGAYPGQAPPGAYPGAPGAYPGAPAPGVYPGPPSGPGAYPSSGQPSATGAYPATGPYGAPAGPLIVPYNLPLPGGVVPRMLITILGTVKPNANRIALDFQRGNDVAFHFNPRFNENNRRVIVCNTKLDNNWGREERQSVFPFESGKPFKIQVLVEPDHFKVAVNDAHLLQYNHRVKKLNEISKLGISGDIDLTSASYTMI

B1: 2D10.2B2 (antibody, V domains shown)
VH: QVQLQQSGPELVKPGASVKISCKASGYTFTDYYINWVKQRPGQGLEWIGWIYPGSNDTKYNEKFKGKATLTVDTSSSTAYMQLGSLTSEDSAVYFCANYFGCSGWFFDVWGTGTTVTVSS
VL: DIVMTQAAFSNPVTLGTSASISCRSSKSLLHSDGITYLYWYLQRPGQSPQLLIYRMSNLASGVPDRFSGSGSGTDFTLRISRVEAEDVGVYYCAQMIEFPLTFGAGTILELK
notes: murine antibody
In the case of B1, the binding result [1] is reported as “binds”, the “GAL3-TIM3 Blocking @ 3 ug/mL” value [2] is reported as 86% and the Kd [3] is reported as 0.753 nM.

B2: 846T.1H2 (antibody, V domains shown)
VH: QIQLVQSGPELKKPGETVKISCKASGYTFTNYGMNWVKQAPGKGLKWMGWINTNTGEPTYAEEFKGRFAFSLETSASTAYLQINNLKNEDTATYFCATGGGNWDFDYWGQGTTLTVSS
VL: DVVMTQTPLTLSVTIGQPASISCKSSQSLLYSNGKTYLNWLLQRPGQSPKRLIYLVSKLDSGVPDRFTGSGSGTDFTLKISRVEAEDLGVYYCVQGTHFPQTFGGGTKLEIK
notes: murine antibody
In the case of B2, the “GAL3-TIM3 Blocking @ 3 ug/mL” value [2] is reported as 81% and the Kd [3] is reported as 2.82 nM.

B3: 846.2H3 (antibody, V domains shown)
VH: QIQLVQSGPELKKPGETVKISCKASGYTFTNYGMNWVKQAPGKGLKWMGWINTYTGEPSYADDFKGRFAFSLETSASTAYLQINNLKNEDMATYFCARWGGYDGDYYAMDYWGQGTSVTVSS
VL: NIMMTQSPSSLAVSAGEKVTMSCKSSQSVLYSSNQKNYLAWYQQKPGQSPKLLIYWASTRESGVPDRFTGSGSGTDFTLTISSVQPEDLAVYYCHQYLSSLTFGAGTKLELK
notes: murine antibody
B3 was tested, and the “GAL3-TIM3 Blocking @ 3 ug/mL” value [2] was 100% and the Kd [3] was 10.2 nM.

B4: 846.1F5 (antibody, V domains shown)
VH: QIQLVQSGPELKKPGETVKISCKASGYTFTNYGMNWVKQAPGKGLKWMGWINTYTGEPSYADDFKGRFAFSLETSASTAYLQINNLKNEDMATYFCARWGGYDGDYYAMDYWGQGTSVTVSS
VL: NIMMTQSPSSLAVSAGEKVTMSCKSSQSVLYSSNQKNYLAWYQQKPGQSPKLLIYWASTRESGVPDRFTGSGSGTDFTLTISSVQPEDLAVYYCHQYLSSLTFGAGTKLELK
notes: murine antibody
In the case of B4, the “GAL3-TIM3 Blocking @ 3 ug/mL” value [2] is reported as 90% and the Kd [3] is reported as 2.73 nM.

B5: 19B5.2E6 (antibody, V domains shown)
VH: QIQLVQSGPELKKPGETVKISCKASGYTFTTYAMSWVKQAPGKGLKWMGWINTYSGVPTYADDLKGRFAFSLETSASTAYLQINNLKNEDTATYFCARGPYAMDYWGQGTSVTVSS
VL: DIQMTQTTSSLSASLGDRVTISCSASQGINNYLNWYQQKPDGTVKLLIYYASSLHSGVPSRFSGSGSGTDYSLTISNLEPEDIATYYCQQYSQVPYTFGSGTKLEIK
notes: murine antibody
In the case of B5, the “GAL3-TIM3 Blocking @ 3 ug/mL” value [2] is reported as 61% and the Kd [3] is reported as under 1 nM.

B6: 20H5.A3 (antibody, V domains shown)
VH: QIQLVQSGPELKKPGESVKISCKASGYAFTTYGMSWVQQAPGKGLKWMGWVNTYSGVPTCADDFKGRFAFSLETSASTAYLQINNLRNEDTATYFCARGPYAMDYWGQGTSVTVSS
VL: DIQMTQTTSSLSASLGDRVTINCSASQDISNYLNWYQQKPDGTVKLLIYYTSSLLSGVPSRFSGSGSGTDYSLTISNLEPEDIATYFCQQYSKLPYTFGSGTHLEIK
notes: murine antibody
B6 was tested, and the “GAL3-TIM3 Blocking @ 3 ug/mL” value [2] was 81% and the Kd [3] was 3.95 nM.

B7: 23H9.2E4 (antibody, V domains shown)
VH: QIQLVQSGPELKKPGETVKISCKASGYTFTTYAMSWVKQAPGKGLKWMGWINTYSGVPTYADDLKGRFAFSLETSASTAYLQINNLKNEDTATYFCARGPYAMDYWGQGTSVTVSS
VL: DIQMTQTTSSLSASLGDRVTISCSASQGINNYLNWYQQKPDGTVKLLIYYASSLHSGVPSRFSGSGSGTDYSLTISNLEPEDIATYYCQQYSQVPYTFGSGTKLEIK
notes: murine antibody
In the case of B7, the “GAL3-TIM3 Blocking @ 3 ug/mL” value [2] is reported as 80% and the Kd [3] is reported as 4.26 nM.

B8: 6H6.2D6 (antibody, V domains shown)
VH: QIQLVQSGPELKKPGETVKISCKASGYTFTTYGMSWVKQAPGKGLKWMAWINTYSGVPTYADDFKGRFAFSLETSASTAYLQINNLTNEDTATYFCARGPYAMDYWGQGTSVTVSS
VL: DIQMTQTTSSLSASLGDRVTISCSASQGISNYLNWYQQKPDGTVKLLIYYTSSLHSGVPSRFSGSGSGTDYSLTISNLEPEDIATYYCQQYSELPYTFGSGTKLEIK
notes: murine antibody
In the case of B8, the “GAL3-TIM3 Blocking @ 3 ug/mL” value [2] is reported as 82% and the Kd [3] is reported as 4.86 nM.

Reference: US20260234269A1 (TRUEBINDING, published 2026)
